The values below come from paper PMC5910400.

This test has as its target CXCL8 (human).

B1: P1156 (evasin from Ixodes ricinus), purified, C-terminal StrepII:His tag (natural protein)
chain: DGGADDDNELFTVQYCGMNCTKDEGGTWTGCTGKKEGCKCYHESGKNYGLCLSTEYTDFSQYGNPSDSEIEAAKPKRSDTLSH
In the case of B1, the mean IC50 (three biological replicates) of inhibition of primary human granulocyte migration induced by the EC80 dose of CXCL8 is 1.8e-09 M.
